Laboratory results: US20260274985A1 (MYTHIC THERAPEUTICS, published 2026)
Where a chain is given by its changes, count along the chain named.

B1: MYT13176 (antibody, V domains shown)
VH: QVQLQQSGSELKKPGASVKVSCKASGYTFTNHGMNWVKQAPGQGLKWMGWINTYTGEPTYTDDFKGRFAFSLDTSVSTAYLQISSLKADDTAVYFCARGGFGSSYWYFDVWGQGSLVTVSS
VL: DIQLTQSPSSLSASVGDRVSITCKASQDVSIAVAWYQQKPGKAPKLLIYSHSYRYTGVPDRFSGSGSGTDFTLTISSLQPEDFAVYYCQQHYITPLTFGAGTKVEIK
notes: Sacituzumab HC-LC pairing variant; IgG
B2: MYT13161 (antibody, V domains shown)
VH: B1 VH with H32Y, G33H
VL: B1 VL with S30H, H51A
notes: as for B1
B3: MYT13168 (antibody, V domains shown)
VH: B1 VH
VL: B1 VL with V33H, H51A
notes: as for B1
B4: MYT13185 (antibody, V domains shown)
VH: B1 VH with H32Y, G33H
VL: B1 VL with H51A, S52H
notes: as for B1
B5: MYT13200 (antibody, V domains shown)
VH: B1 VH
VL: B1 VL with H51A, Q89H
notes: as for B1
B6: MYT13183 (antibody, V domains shown)
VH: B1 VH with H32Y, G66H
VL: B1 VL
notes: as for B1
B7: MYT13175 (antibody, V domains shown)
VH: B1 VH with H32Y, G66H
VL: B1 VL with V33H, H51A
notes: as for B1
B8: MYT13188 (antibody, V domains shown)
VH: B1 VH with H32Y, D63H
VL: B1 VL with H51A, S52H
notes: as for B1
B9: MYT13171 (antibody, V domains shown)
VH: B1 VH with H32Y, D62H
VL: B1 VL with V33H, H51A
notes: as for B1
B10: MYT13172 (antibody, V domains shown)
VH: B1 VH with H32Y, D63H
VL: B1 VL with V33H, H51A
notes: as for B1
B11: MYT13166 (antibody, V domains shown)
VH: B1 VH with H32Y, K65H
VL: B1 VL with S30H, H51A
notes: as for B1
B12: MYT13180 (antibody, V domains shown)
VH: B1 VH with H32Y, D63H
VL: B1 VL
notes: as for B1
B13: MYT13167 (antibody, V domains shown)
VH: B1 VH with H32Y, G66H
VL: B1 VL with S30H, H51A
notes: as for B1
B14: MYT13169 (antibody, V domains shown)
VH: B1 VH with H32Y, G33H
VL: B1 VL with V33H, H51A
notes: as for B1
B15: MYT13186 (antibody, V domains shown)
VH: B1 VH with H32Y, Y60H
VL: B1 VL with H51A, S52H
notes: as for B1
B16: MYT13174 (antibody, V domains shown)
VH: B1 VH with H32Y, K65H
VL: B1 VL with V33H, H51A
notes: as for B1
B17: MYT13182 (antibody, V domains shown)
VH: B1 VH with H32Y, K65H
VL: B1 VL
notes: as for B1
B18: MYT13189 (antibody, V domains shown)
VH: B1 VH with H32Y, F64H
VL: B1 VL with H51A, S52H
notes: as for B1
B19: MYT13162 (antibody, V domains shown)
VH: B1 VH with H32Y, Y60H
VL: B1 VL with S30H, H51A
notes: as for B1
B20: MYT13164 (antibody, V domains shown)
VH: B1 VH with H32Y, D63H
VL: B1 VL with S30H, H51A
notes: as for B1
B21: MYT13179 (antibody, V domains shown)
VH: B1 VH with H32Y, D62H
VL: B1 VL
notes: as for B1
B22: MYT13181 (antibody, V domains shown)
VH: B1 VH with H32Y, F64H
VL: B1 VL
notes: as for B1
B23: MYT13178 (antibody, V domains shown)
VH: B1 VH with H32Y, Y60H
VL: B1 VL
notes: as for B1
B24: MYT13165 (antibody, V domains shown)
VH: B1 VH with H32Y, F64H
VL: B1 VL with S30H, H51A
notes: as for B1
B25: MYT13163 (antibody, V domains shown)
VH: B1 VH with H32Y, D62H
VL: B1 VL with S30H, H51A
notes: as for B1
B26: MYT13170 (antibody, V domains shown)
VH: B1 VH with H32Y, Y60H
VL: B1 VL with V33H, H51A
notes: as for B1
B27: MYT13177 (antibody, V domains shown)
VH: B1 VH with H32Y, G33H
VL: B1 VL
notes: as for B1
B28: MYT13184 (antibody, V domains shown)
VH: B1 VH
VL: B1 VL with H51A, S52H
notes: as for B1
B29: MYT13173 (antibody, V domains shown)
VH: B1 VH with H32Y, F64H
VL: B1 VL with V33H, H51A
notes: as for B1
B30: MYT12311 (antibody, V domains shown)
VH: B1 VH with H32Y, Y60H, G66H
VL: B1 VL with H51A
notes: sacituzumab VH 60, 66 -> H
B31: MYT12307 (antibody, V domains shown)
VH: B1 VH with H32Y, Y60H, D62H
VL: B1 VL with H51A
notes: sacituzumab VH 60, 62 -> H
B32: MYT12299 (antibody, V domains shown)
VH: B1 VH with K65H
VL: B1 VL with H51A
notes: sacituzumab VH 32, 65 -> H
B33: MYT12305 (antibody, V domains shown)
VH: B1 VH with H32Y, G33H, K65H
VL: B1 VL with H51A
notes: sacituzumab VH 33, 65 -> H
B34: MYT12300 (antibody, V domains shown)
VH: B1 VH with G66H
VL: B1 VL with H51A
notes: sacituzumab VH 32, 66 -> H
B35: MYT12312 (antibody, V domains shown)
VH: B1 VH with H32Y, D62H, D63H
VL: B1 VL with H51A
notes: sacituzumab VH 62, 63 -> H
B36: MYT12309 (antibody, V domains shown)
VH: B1 VH with H32Y, Y60H, F64H
VL: B1 VL with H51A
notes: sacituzumab VH 60, 64 -> H
B37: MYT12304 (antibody, V domains shown)
VH: B1 VH with H32Y, G33H, F64H
VL: B1 VL with H51A
notes: sacituzumab VH 33, 64 -> H
B38: MYT12308 (antibody, V domains shown)
VH: B1 VH with H32Y, Y60H, D63H
VL: B1 VL with H51A
notes: sacituzumab VH 60, 63 -> H
B39: MYT12303 (antibody, V domains shown)
VH: B1 VH with H32Y, G33H, D63H
VL: B1 VL with H51A
notes: sacituzumab VH 33, 63 -> H
B40: MYT12301 (antibody, V domains shown)
VH: B1 VH with H32Y, G33H, Y60H
VL: B1 VL with H51A
notes: sacituzumab VH 33, 60 -> H
B41: MYT11674 (antibody, V domains shown)
VH: QVQLVQSGAEVKKPGASVKVSCKASGYTFTTAGMQWVRQAPGQGLEWMGWINTHSGVPKYAEDFKGRVTISADTSTSTAYLQLSSLKSEDTAVYYCARSGFGSSYWYHDVWGQGTLVTVSS
VL: B1 VL with L4M, S20T, I31T, H51A, D60S, A100Q, V104L
notes: IgG from supernatant; also called datopotamab variant H3 12
B42: MYT11675 (antibody, V domains shown)
VH: B41 VH with H108F, D109H
VL: B1 VL with L4M, S20T, I31T, H51A, D60S, A100Q, V104L

target: T1, Human TROP2 Protein, His Tag (Acro Biosystems) (human, UniProt P09758 27-274); experiment: BLI (Octet)
T1 construct: Soluble analyte of the Octet assay; also called TACSTD2; not shown: His tag
T1 sequence (looked up): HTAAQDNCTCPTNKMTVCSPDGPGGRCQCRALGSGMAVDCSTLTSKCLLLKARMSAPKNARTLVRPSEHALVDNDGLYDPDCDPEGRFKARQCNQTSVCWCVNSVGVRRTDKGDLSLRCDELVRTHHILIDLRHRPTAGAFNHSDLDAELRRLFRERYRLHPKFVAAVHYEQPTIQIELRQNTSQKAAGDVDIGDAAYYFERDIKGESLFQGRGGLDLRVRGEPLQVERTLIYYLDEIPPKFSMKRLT

Binding result, binds:
B1
B2
B3
B4
B5
B6
B7
B8
B9
B10
B11
B12
B13
B14
B15
B16
B17
B18
B19
B20
B21
B22
B23
B24
B25
B26
B27
B28
B29

target: T2, Human TROP2 Protein, His Tag (Acro Biosystems) (human, UniProt P09758 27-274); experiment: BLI (Octet) [1/2]
T2 construct: not shown: His tag
T2 sequence (looked up): T1 sequence (looked up)

Binding result, binds:
B30
B31
B32
B33
B34
B35
B36
B37
B38
B39
B40

target: T3, Human TROP2 Protein, His Tag (human, UniProt P09758 27-274); experiment: BLI (Octet)
T3 construct: Bought protein; also called TACSTD2; not shown: His tag
T3 sequence (looked up): T1 sequence (looked up)

Binding result, binds:
B41
B42
